The text below walks through data of patent publication US20210261671A1 (HARPOON THERAPEUTICS, published 2021).

Assay [1] concerns the target T1, human FLT3 protein (human, UniProt P36888 27-541, limits assumed).
T1 construct: protein coated in the screening ELISA; also called ELISA FLT3
Description: colorimetric ELISA, signal over control wells lacking FLT3. From the text:
(§1) Llamas were immunized with purified FLT3 protein expressed in Expi293 cells. A phage display library for expression of heavy variable antibody domains was constructed from circulating B cells isolated from the immunized llamas (See van der Linden, de Geus, Stok, Bos, van Wassenaar, Verrips, and Frenken. 2000. J Immunol Methods 240:185-195). Phage clones were screened for binding to FLT3 by expressing llama anti-FLT3 proteins in E. coli, preparing periplasmic extracts, and performing colorimetric ELISAs.
(In general: An ELISA detects its analyte on a solid surface through an enzyme-linked reagent.)

Assay [2] deals with T1, human FLT3 protein. Description: colorimetric ELISA, periplasmic extract.
Description: as §1

B1: FLL76 (VHH)
VHH: QVQLQESGGGLVQAGGSLRLSCAASGGAFSSYVMGWFRQAPGKEREFVAAVISWSGRITDYADSVKGRFSISRDNAKSTVYLQMNNLKPEDTAVYYCAAKTGMYIDLRTSTFDYWGQGTQVTVSS
notes: llama anti-FLT3 variable domain; E. coli periplasmic extract
B1 yielded an FLT3/control with human FLT3 protein [1] of 5 ratio. Moreover, in the assay with human FLT3 protein [2], the “ELISA FLT3 (absorbance)” value is 0.5 absorbance.

B2: FLL154 (VHH)
VHH: QVQLQESGGGLVQAGGSLRLSCAVSGRTFSGFGTGWFRQAPGKEREFVAAISWSGGRTHYADSVKGRFTISRDNAKNTVYLQMNSLKPEDTAVYYCAGQVARAYDGNWYSRGDYWGQGTQVTVSS
notes: as for B1
Molecule B2 showed an FLT3/control with human FLT3 protein [1] of 8 ratio. Also, the “ELISA FLT3 (absorbance)” value with human FLT3 protein [2] was found to be 4 absorbance.

B3: FLL74 (VHH)
VHH: QVQLQESGGGLVQAGGSLRLSCRFSGRTFSGFGTGWFRQAPGKEREFVAAISWAGGRTHYEDSVKGRFTISRDNAKNTVYLQMNSLKPEDTAVYYCAVQVSRAYDGIWYSGGDYWGQGTQVTVSS
notes: as for B1
Regarding B3, the FLT3/control with human FLT3 protein [1] was found to be 6 ratio. Besides, in the assay with human FLT3 protein [2], the “ELISA FLT3 (absorbance)” value worked out at 3.9 absorbance.

B4: FLL6 (VHH)
VHH: QVQLQESGGGLVQAGGSLRLSCAVSGRTFSGFGTGWFRQAPGKEREFVAAISWDGGRTHYADSVKGRFTISRDNAANTVYLQMNSLKPEDTAVYYCAGQVSRAYDSMWYGRDDYWGQGTQVTVSS
notes: as for B1
In the assay with human FLT3 protein [1], B4 gave an FLT3/control of 16 ratio. For the same molecule, in the assay with human FLT3 protein [2], the “ELISA FLT3 (absorbance)” value turned out to be 3.8 absorbance.

B5: FLL83 (VHH)
VHH: QVQLQESGGGLVQAGGSLRLSCAVSGRTFSGFGTGWFRQAPGKEREFVAAISWSGGTTHYADSVKGRFTISRDNAENTVYLEMNSLKPEDTAVYICAGQVSRAYDSNWYSRDDYWGQGTQVTVSS
notes: as for B1
In the assay with human FLT3 protein [1], B5 returned an FLT3/control of 35 ratio. Besides, the “ELISA FLT3 (absorbance)” value with human FLT3 protein [2] came to 3.8 absorbance.

B6: FLL168 (VHH)
VHH: QVQLQESGGGSVQAGGSLRLSCAFSGRTFSGFGTGWFRQAPEKEREFVAAISWDGGRTHYADSVKGRFTISRDNAKNTVYLQMDSLKPEDTAIYYCAAQVSRAYDGRWYSAVDYWGRGTQVTVSS
notes: as for B1
In turn, B6 displayed an FLT3/control in the assay with human FLT3 protein [1] of 28 ratio. In the assay with human FLT3 protein [2], the “ELISA FLT3 (absorbance)” value came out at 4 absorbance.

B7: FLL94 (VHH)
VHH: QVQLQESGGGLVQAGGSLRLSCAVSGRTFSGFGTGWFRQAPEKEREFVAAISWDGGRTHYADSVKGRFTISRDNAKNTVYLQMNSLKPEDTAIYYCAGQVARAYDTRWYSRGDYWGQGTQVTVSS
notes: as for B1
The molecule B7 returned an FLT3/control in the assay with human FLT3 protein [1] of 5 ratio. Also, in the assay with human FLT3 protein [2], the “ELISA FLT3 (absorbance)” value came out at 4 absorbance.

B8: FLL142 (VHH)
VHH: QVQLQESGGGLVQAGGSLRLSCAVSGRTFSGFGTGWFRQAPGKEREFVAAISWDGGRTHYADFVKGRFTISRDNAKNTVYLQMNSLKPEDTAVYYCAAQVARAYDSKWYSGGDYWGQGTQVTVSS
notes: as for B1
B8 yielded an FLT3/control with human FLT3 protein [1] of 15 ratio. The “ELISA FLT3 (absorbance)” value with human FLT3 protein [2] is 4 absorbance.

B9: FLL170 (VHH)
VHH: QVQLQESGGGLVQAGGSLRLSCAVSGRTFSGFGTGWFRQAPGKEREFVAAISWSGGTTHYADSVKGRFTISRDNAKNTVYLQMNSLKPEDTAVYYCAGQVARAYDSSWYSRGDYWGQGTQVTVSS
notes: as for B1
B9: the FLT3/control with human FLT3 protein [1] came out at 38 ratio. Besides, the “ELISA FLT3 (absorbance)” value with human FLT3 protein [2] came to 4 absorbance.

B10: FLL112 (VHH)
VHH: QVQLQESGGGLVQAGGSLRLSCAVSGRTFSGFGTGWFRQAPGKEREFVAAISWAGGRTHYEDSVKGRFTIHRDNAKNTVYLQMNSLKPEDTAVYYCAAQVSRAYDGIWYSGGDYWGQGTQVTVSS
notes: as for B1
B10: the FLT3/control in the assay with human FLT3 protein [1] turned out to be 34 ratio. Besides, in the assay with human FLT3 protein [2], the “ELISA FLT3 (absorbance)” value is 3.6 absorbance.

B11: FLL99 (VHH)
VHH: QVQLQESGGGLVQAGGSLRLSCAVSGRTFSGFGTGWFRQAPGKEREFVAAISWDGGRTHYADFVKGRFTISRDNAKNTVYLQMNSLKPEDTAVYYCAAQVARAYDSRWYSGGDYWGQGTQVTVSS
notes: as for B1
Regarding B11, the FLT3/control with human FLT3 protein [1] was determined as 13 ratio. Moreover, the “ELISA FLT3 (absorbance)” value with human FLT3 protein [2] amounted to 3.7 absorbance.

B12: FLL38 (VHH)
VHH: QVQLQESGGGLVQAGGSLRLSCAVSGRTFSGFGTGWFRQAPGKEREFVAAVSWSGGTTEIADSVKGRFTISRDNAKNTVYLQMSSLKPGDTAVYYCAGQVARAYDSRWYSRGDYWGQGTQVTVSS
notes: as for B1
With B12, the FLT3/control with human FLT3 protein [1] was 45 ratio. In the assay with human FLT3 protein [2], the “ELISA FLT3 (absorbance)” value came to 4 absorbance.

B13: FLL143 (VHH)
VHH: QVQLQESGGGLVQAGGSLRLSCAVSGRTFSGFGTGWFRQAPGKEREFVAAISWVGGRTHYADSVKGRFTISRDNAKNTVYLQMNSLKPEDTAVYYCAAQVARAYDGNWYSGGDYWGQGTQVTVSS
notes: as for B1
B13 displayed an FLT3/control with human FLT3 protein [1] of 47 ratio. In addition, the “ELISA FLT3 (absorbance)” value in the assay with human FLT3 protein [2] amounted to 4 absorbance.

B14: FLL822 (VHH)
VHH: QVQLQESGGGSVQAGGSLRLSCTASGRTFTDYTMGWFRQAPGKEREFMLGISSNGYRRYYTGSMKDRFTISRDNVKKTVYLQMNDLKPEDTAVYYCAASEDHGAPRYDYWGQGTQVTVSS
notes: as for B1
In turn, B14 returned an FLT3/control with human FLT3 protein [1] of 17 ratio. The “ELISA FLT3 (absorbance)” value with human FLT3 protein [2] amounted to 4 absorbance.

B15: FLL823 (VHH)
VHH: QVQLQESGGGVVQVGGSLRLSCAASGGTFGYYAVGWFRQAPGKEREFVAAVTWNGAYLYSDPVKGRFTISRDNAKNTVYLQMNSLKSEDTAVYYCGLDRWSAVVESTPSTRGQGTQVTVSS
notes: as for B1
In turn, B15 yielded an FLT3/control with human FLT3 protein [1] of 4 ratio. The “ELISA FLT3 (absorbance)” value with human FLT3 protein [2] is 3.6 absorbance.

B16: FLL177 (VHH)
VHH: QVQLQESGGGLVQTGGSLRLSCAASGSTFSRNTMGWFRQAPGKERVFVLGISWSGIRSYYLDSAKARFTISRDNAKNTVYLQMNSLRPEDTAVYYCAAQEGSSPGPYKYWGQGTQVTVSS
notes: as for B1
B16 showed an FLT3/control with human FLT3 protein [1] of 54 ratio. Besides, the “ELISA FLT3 (absorbance)” value with human FLT3 protein [2] was 4 absorbance.

B17: FLL45 (VHH)
VHH: QVQLQESGGGLVQAGGSLRLSCAASGGTFSSSAMGWFRQAPGKEREFVATITQNDVPTYYTHSVKGRFTISRDNAKNTMYLQMNSLKPEDTAVYYCAQRVAQASGWRTTIKDYGYWGQGTQVTVSS
notes: as for B1
As to B17, the FLT3/control in the assay with human FLT3 protein [1] is 28 ratio. In addition, the “ELISA FLT3 (absorbance)” value with human FLT3 protein [2] amounted to 4 absorbance.

B18: FLL39 (VHH)
VHH: QVQLQESGGGLVQAGGSLRLSCAASGLTSSTYRMAWFRQAPGKEREFAAGISYSADSGGSTNYADSVKGRFTISRDNAKNTVYLQMSSLKPEDTAVYYCAAGRYSGTYNSPYSSSYVYWGQGTQVTVSS
notes: as for B1
With B18, in the assay with human FLT3 protein [1], the FLT3/control came out at 12 ratio. In the assay with human FLT3 protein [2], the “ELISA FLT3 (absorbance)” value came to 1.9 absorbance.

B19: FLL125 (VHH)
VHH: QVQLQESGGGLVQAGGSLRLSCAASGSTFSRNYIDWYRQAPGKQREWVAQITSGGNTHYEPSLKGRFTISRDNAKNTAYLQMNSLKPEDTAVYYCRILDYWGQGTQVTVSS
notes: as for B1
As to B19, the FLT3/control in the assay with human FLT3 protein [1] worked out at 17 ratio. Also, the “ELISA FLT3 (absorbance)” value in the assay with human FLT3 protein [2] worked out at 2.1 absorbance.

B20: FLL57 (VHH)
VHH: QVQLQESGGGLVQAGGSLRLSCAASGSTFSKNYIDWYRQAPGKQREWVAQITSGGNTHYEPSLKGRFTISRDNAKNTAYLQMNSLKPEDTAVYYCRILDYWGQGTQVTVSS
notes: as for B1
B20 had an FLT3/control with human FLT3 protein [1] of 9 ratio. Moreover, the “ELISA FLT3 (absorbance)” value with human FLT3 protein [2] was determined as 1.4 absorbance.

B21: FLL62 (VHH)
VHH: QVQLQESGGGLVQAGGSLRLSCAASGSTSSRNYIDWYRQAPGKQREWVAQITSGGNTHYEPSLKGRFTISRDNAKNTAYLQMNSLKPEDTAVYYCRILDYWGQGTQVTVSS
notes: as for B1
Regarding B21, in the assay with human FLT3 protein [1], the FLT3/control is 5 ratio. Moreover, the “ELISA FLT3 (absorbance)” value with human FLT3 protein [2] came out at 0.5 absorbance.

B22: FLL86 (VHH)
VHH: QVQLQESGGGLVQPGDPLRLSCAASGSTFSRNYIDWYRQAPGKQREWVAQITSGGNTHYEPSLKGRFTISRDNAKNTAYLQMNSLKPEDTAVYYCRILDYWGQGTQVTVSS
notes: as for B1
The molecule B22 gave an FLT3/control with human FLT3 protein [1] of 15 ratio. In the assay with human FLT3 protein [2], the “ELISA FLT3 (absorbance)” value turned out to be 1.9 absorbance.

B23: FLL21 (VHH)
VHH: QVQLQESGGGLVQPGGSLTLSCAASGSTFSRNYIDWYRQAPGKQREWVAQITSGGNTHYEPSLKGRFTISRDNAKNTAYLQMNSLKPEDTAVYYCRILDYWGQGTQVTVSS
notes: as for B1
In the assay with human FLT3 protein [1], B23 showed an FLT3/control of 20 ratio. For the same molecule, the “ELISA FLT3 (absorbance)” value with human FLT3 protein [2] was 3.3 absorbance.

B24: FLL55 (VHH)
VHH: QVQLQESGGGLVQAGGSLRLSCAASGSTFSRNYIDWYRQAPGKQREWVAQITSAGNTHYEPSLKGRFTISRDNAKNTAYLQMNSLKPEDTAVYYCRILDYWGQGTQVTVSS
notes: as for B1
Take B24: in the assay with human FLT3 protein [1], the FLT3/control was determined as 6 ratio. Also, the “ELISA FLT3 (absorbance)” value with human FLT3 protein [2] was 2 absorbance.

B25: FLL79 (VHH)
VHH: QVQLQESGGGLVQAGGSLRLSCSASGSTFSRNYIDWYRQAPGKQREWVAQITSGGNTHYEPSLKGRFTISRDNAKNTAYLQMNSLKPEDTAVYYCRILDYWGQGTQVTVSS
notes: as for B1
B25 gave an FLT3/control in the assay with human FLT3 protein [1] of 4 ratio. In the assay with human FLT3 protein [2], the “ELISA FLT3 (absorbance)” value turned out to be 0.6 absorbance.

B26: FLL158 (VHH)
VHH: QVQLQESGGGLVQPGGSLRLSCAASGSTFGRNYIDWYRQAPGKQREWVAQITSGGNTHYEPSLKGRFTISRDNAKNTAYLQMNSLKPEDTAVYYCRILDYWGQGTQVTVSS
notes: as for B1
As to B26, the FLT3/control with human FLT3 protein [1] was determined as 17 ratio. In addition, in the assay with human FLT3 protein [2], the “ELISA FLT3 (absorbance)” value was 2.1 absorbance.

B27: FLL15 (VHH)
VHH: QVQLQESGGGLVQAGGSLSLSCAASEGTISHAAMGWFRQAPGKERQFVAYDTWTGGSTNYADSVKDRFTITGDHAKNTVYLQMNSLKPEDTGVYYCAVRGRYSASYTYTNPASYKYWGQGTQVTVSS
notes: as for B1
B27 gave an FLT3/control with human FLT3 protein [1] of 31 ratio. Also, the “ELISA FLT3 (absorbance)” value with human FLT3 protein [2] was determined as 2.5 absorbance.
